What was measured:
CD28 (human) [1] = target: CD28 (human) (UniProt P10747)
PD-L1 (human) [2] = target: PD-L1 (human) (UniProt Q9NZQ7)
Target sequence in this assay (Q9NZQ7 19-290): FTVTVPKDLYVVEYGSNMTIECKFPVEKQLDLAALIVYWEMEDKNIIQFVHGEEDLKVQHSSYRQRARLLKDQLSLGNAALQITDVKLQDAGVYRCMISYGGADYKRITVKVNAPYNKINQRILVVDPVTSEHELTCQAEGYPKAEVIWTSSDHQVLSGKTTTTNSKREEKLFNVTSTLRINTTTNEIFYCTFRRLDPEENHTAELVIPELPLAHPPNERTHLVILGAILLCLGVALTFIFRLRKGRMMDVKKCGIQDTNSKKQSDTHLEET

CD28 (human) [3] = target: CD28 (human) (UniProt P10747); remark: listed apart in the source
CD28 (human) [4] = target: CD28 (human) (UniProt P10747); remark: listed apart in the source
PD-L1 (human) [5] = target: PD-L1 (human) (UniProt Q9NZQ7); remark: listed apart in the source
Target sequence in this assay (Q9NZQ7 19-290 limits assumed): as the sequence (Q9NZQ7 19-290) above

CD28 (human) [6] = target: CD28 (human) (UniProt P10747); assay: flow cytometry, Jurkat cells (CD28)
human CTLA-4 (human) [7] = target: human CTLA-4 (human) (UniProt P16410); assay: flow cytometry, CHO cells stably expressing CTLA4
Sequence of human CTLA-4 (human) (P16410 36-223): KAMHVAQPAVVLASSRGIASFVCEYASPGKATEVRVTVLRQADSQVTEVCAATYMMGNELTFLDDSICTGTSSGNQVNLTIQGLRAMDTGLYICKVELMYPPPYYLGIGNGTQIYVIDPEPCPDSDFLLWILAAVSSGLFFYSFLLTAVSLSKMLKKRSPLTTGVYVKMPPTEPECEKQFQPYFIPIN

PD-L1 (human) [8] = target: PD-L1 (human) (UniProt Q9NZQ7); assay: flow cytometry, CHO cells stably expressing PD-L1
Target sequence in this assay (Q9NZQ7 19-290): as the sequence (Q9NZQ7 19-290) above

PD-L1 (human) [9] = target: PD-L1 (human) (UniProt Q9NZQ7); assay: flow cytometry, MFI on PD-L1 cells over MFI on CD28 cells
Target sequence in this assay (Q9NZQ7 19-290): as above

CD28 (human) [10] = target: CD28 (human) (UniProt P10747); remark: listed apart in the source
PD-L1 (human) [11] = target: PD-L1 (human) (UniProt Q9NZQ7); remark: listed apart in the source
Target sequence in this assay (Q9NZQ7 19-290): as above

CD28 (human) [12] = target: CD28 (human) (UniProt P10747); assay: flow cytometry, Jurkat/IL2 reporter cells (endogenous CD28)
CD28 (human) [13] = target: CD28 (human) (UniProt P10747); assay: flow cytometry, Expi293F cells transfected with CD28
human CTLA-4 (human) [14] = target: human CTLA-4 (human) (UniProt P16410); assay: flow cytometry, Expi293F cells transfected with CTLA-4
PD-L1 (human) [15] = target: PD-L1 (human) (UniProt Q9NZQ7); assay: flow cytometry, Expi293F cells transfected with PD-L1
Target sequence in this assay (Q9NZQ7 19-290): as above

human CTLA-4 (human) [16] = target: human CTLA-4 (human) (UniProt P16410); assay: flow cytometry, CHO cells expressing huCTLA4

| Substance | Jurkat/IL2 reporter RLU at 50 nM, K562/OKT3/PD-L1 aAPC (CD28 (human) [1]) | Jurkat/IL2 reporter RLU at 50 nM, K562/OKT3 aAPC without PD-L1 (CD28 (human) [1]) | Jurkat/IL2 reporter RLU at 50 nM, K562/OKT3/PD-L1 aAPC (PD-L1 (human) [2]) | IL-2 release, primary T cells + K562/OKT3 (No PD-L1), 100 nM (CD28 (human) [3]) | further results |
| --- | --- | --- | --- | --- | --- |
| CD80 E35D/M47I IgV-Fc (effector) (Fc fusion) | 5700 RLU | 7140 RLU | 5700 RLU | 27200 | – |
| variant CD80 IgV-Fc H18Y/A26E/E35D/M47L/V68M (Fc fusion) | – | – | – | – | IL-2 luciferase reporter, fold increase over WT CD80-IgV-Fc at 5.0 nM (CD28 (human) [4]): 2.29 fold; IL-2 luciferase reporter, fold increase over WT CD80-IgV-Fc at 5.0 nM (PD-L1 (human) [5]): 2.29 fold; Fold change to WT CD80 (CD28 (human) [6]): 14.3 fold; MFI at 33.3 nM (CD28 (human) [6]): 626 MFI; Fold change to WT CD80 (human CTLA-4 (human) [7]): 14.7 fold; MFI at 33.3 nM (human CTLA-4 (human) [7]): 20000 MFI; Fold change to WT CD80 (PD-L1 (human) [8]): 566 fold; MFI at 33.3 nM (PD-L1 (human) [8]): 24700 MFI; Ratio of PDL1:CD28 (PD-L1 (human) [9]): 39.4 |
| CD80 H18Y/A26T/E35D/A71D/L85Q IgV-Fc (inert) (Fc fusion) | – | – | – | – | Jurkat/IL2 reporter RLU at 50 nM, CHO/OKT3/PD-L1 aAPC (CD28 (human) [10]): 1160 RLU; Jurkat/IL2 reporter RLU at 50 nM, CHO/OKT3 aAPC without PD-L1 (CD28 (human) [10]): 926 RLU; Jurkat/IL2 reporter RLU at 50 nM, CHO/OKT3/PD-L1 aAPC (PD-L1 (human) [11]): 1160 RLU |
| variant CD80 IgV-Fc H18Y/A26E/E35D/M47L/A71G (Fc fusion) | – | – | – | – | IL-2 luciferase reporter, fold increase over WT CD80-IgV-Fc at 5.0 nM (CD28 (human) [4]): 2.42 fold; IL-2 luciferase reporter, fold increase over WT CD80-IgV-Fc at 5.0 nM (PD-L1 (human) [5]): 2.42 fold; Fold change to WT CD80 (CD28 (human) [6]): 8.6 fold; MFI at 33.3 nM (CD28 (human) [6]): 379 MFI; Fold change to WT CD80 (human CTLA-4 (human) [7]): 14.2 fold; MFI at 33.3 nM (human CTLA-4 (human) [7]): 19400 MFI; Fold change to WT CD80 (PD-L1 (human) [8]): 387 fold; MFI at 33.3 nM (PD-L1 (human) [8]): 16900 MFI; Ratio of PDL1:CD28 (PD-L1 (human) [9]): 44.6 |
| CD80 E35D/M47L IgV-Fc (effector) (Fc fusion) | 5040 RLU | 8680 RLU | 5040 RLU | 26800 | – |
| variant CD80 IgV-Fc E35D/D46V/M47I/A71G/F92V (Fc fusion) | – | – | – | – | MFI at 33.3 nM (CD28 (human) [12]): 7540 MFI |
| CD80 L65H/D90G/T110A/F116L ECD-Fc (Fc fusion) | – | – | – | – | MFI (CD28 (human) [13]): 33 MFI; MFI (human CTLA-4 (human) [14]): 121 MFI |
| CD80 K36E/I67T/L70Q/A91G/I118V/T120S/T130A/N152T ECD-Fc (Fc fusion) | – | – | – | – | MFI (CD28 (human) [13]): 8 MFI |
| CD80 E35D/M43L/L70M IgV-Fc (effector) (Fc fusion) | 2780 RLU | 1570 RLU | 2780 RLU | 10500 | – |
| CD80 H18Y/A26T/E35D/A71D/L85Q IgV-Fc (effector) (Fc fusion) | 5220 RLU | 8750 RLU | 5220 RLU | 20600 | – |
| CD80 A26E/E35D/M47L/L85Q IgV-Fc (effector) (Fc fusion) | 2640 RLU | 1330 RLU | 2640 RLU | – | – |
| CD80 A91G ECD-Fc (Fc fusion) | – | – | – | – | MFI (PD-L1 (human) [15]): 85 MFI; parental ratio (PD-L1 (human) [15]): 1.21; MFI (human CTLA-4 (human) [14]): 200 MFI |
| variant CD80 IgV-Fc A26E/E35D/M43I/M47L/L85Q/K86E/R94W (Fc fusion) | – | – | – | – | MFI at 33.3 nM (human CTLA-4 (human) [16]): 2950 MFI; MFI at 33.3 nM (CD28 (human) [12]): 314 MFI |
| CD80 A71D/L72V/E95K IgV-Fc (effector) (Fc fusion) | 4030 RLU | 7110 RLU | 4030 RLU | 21300 | – |
| CD80 E35G/K54E/A71D/L72P IgV-Fc (effector) (Fc fusion) | 805 RLU | 1510 RLU | 805 RLU | – | – |
| variant CD80 IgV-Fc Q33R/E35D/D46E/M47I (Fc fusion) | – | – | – | – | MFI at 33.3 nM (human CTLA-4 (human) [16]): 3560 MFI; MFI at 33.3 nM (CD28 (human) [12]): 303 MFI |
| CD80 E35D IgV-Fc (effector) (Fc fusion) | 2270 RLU | 1200 RLU | 2270 RLU | 8380 | – |
| CD80 E23G/A26S/E35D/T62N/A71D/L72V/L85M IgV-Fc (effector) (Fc fusion) | 4140 RLU | 7860 RLU | 4140 RLU | 27000 | – |

Source: patent US20220177587A1, “METHODS AND USES OF VARIANT CD80 FUSION PROTEINS AND RELATED CONSTRUCTS” (Alpine Immune Sciences, Inc., priority 2018, published 2022)
